Data taken from patent US20160362487A1 (Regeneron, published 2016).

B1: H4H9663P (antibody, human IgG4, V domains shown)
VH: QVQLVQSGAEVKKPGASVKVSCKASGYTFTGHYMYWMRQAPGQGLEWMGWINPNSGGTNYAQKFQDRVTMTRDTSISTAYMELSRLRSDDTAVYYCARGRYGSSWYGGFEYWGQGTLVTVSS
VL: DIQMTQSPSSVSASVGDRVTITCRASQGITSWLAWYQQKPGKAPNLLIYAAASLQSGVPSRFSGSGSGTDFTLTISSLQPEDFTTYYCQQAYSLPLTFGGGTKVEIK
notes: Human IgG4 Fc (H4H)
B2: H4H9666P (antibody, human IgG4, V domains shown)
VH: QVQLVQSGAEVKKPGASVKVSCKASGYTFTSYGISWVRQAPGQGLEWMGWIRAYNGYTNYAQKFQGRVTMTTDTSTNTAYMELRTLNSDDTAVYYCARDRYSGSFHGNFDYWGQGTLVTVSS
VL: DIQMTQSPSSVSASVGDRVTITCRASQGIFSWLAWYQQKPGKAPKVLIYAASNLESGVPSRFSGSGSGTDFTLTISSLQPEDFATYYCQQANSLPLTFGGGTKVEIK
notes: Human IgG4 Fc (H4H)
B3: H4H9664P (antibody, human IgG4, V domains shown)
VH: QVQLVESGGGVVQPGRSLRLSCAASGFTFSSYGLHWVRQSPGKGLEWVALISYDGSNKYYADSVKGRFTISRDNSKNTLYLQMNSLRPEDTAGYFCAKSLYTTSWYGGFDYWGQGTLVTVSS
VL: DIQMTQSPSSVSASVGDRVTITCRASQGIRSWLAWYQQKPGKAPNLLIYAASSLQSGVPSRFSGSGSGTDFTLTISSLQPEDFATYYCQQANSFPPTFGPGTKVDIK
notes: Human IgG4 Fc (H4H)
B4: H4H9665P (antibody, human IgG4, V domains shown)
VH: EVQLVESGGGLVQPGGSLRLSCAASGFTFSNYAMTWVRQAPGKGLEWVSTISGSGDNTYYADSVQGRFTISRGHSKNTLYLQMNSLRAEDTAVYYCAKPTYSRSWYGAFDFWGQGTMVTVSS
VL: DIQMTQSPSSVSASVGDRVTITCRASQGISSWLAWYQQKPGKAPQLLIYAASRLQSGVPSRFWGSGSGTDFTLTISSLQPEDFATYYCQQANNFPFTFGPGTKVDIK
notes: Human IgG4 Fc (H4H)

Experiments:
[1] = target: T1, human IL-33 (R&D Systems, #3625-IL-010/CF) (human, UniProt O95760 112-270); test: SPR 37C pH7.4, mAb captured
T1 construct: Commercial recombinant protein; also called hIL-33; interleukin-33
T1 sequence (looked up): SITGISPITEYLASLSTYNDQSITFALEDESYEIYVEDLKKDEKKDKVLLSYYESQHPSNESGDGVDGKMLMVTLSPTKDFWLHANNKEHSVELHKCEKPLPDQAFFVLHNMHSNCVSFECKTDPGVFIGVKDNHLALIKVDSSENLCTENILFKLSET
Procedure: (§1) Equilibrium dissociation constants (KD values) for IL-33 binding to purified anti-IL-33 monoclonal antibodies were determined using a real-time surface plasmon resonance biosensor using a Biacore 4000 instrument. The Biacore sensor surface was first derivatized by amine coupling with either a polyclonal rabbit anti-mouse antibody (GE, # BR-1008-38) or with a monoclonal mouse anti-human Fc antibody (GE, # BR-1008-39) to capture anti-IL-33 monoclonal antibodies expressed with mouse or with human IgG4 constant regions, respectively. All Biacore binding studies were performed in 0.01M ADA pH 7.4, 0.15M NaCl, 3 mM EDTA, and 0.05% v/v Surfactant Tween-20 (ABS-ET running buffer). […] Association of either hIL-33 or MfIL-33-6His to the captured monoclonal antibody was monitored for 4 minutes and their dissociation in ABS-ET running buffer was monitored for 10 minutes. The effect of reduced pH on the binding of each anti-IL-33 antibody to either hIL-33 or MfIL-33-6His was studied using an in-line pH chase assay format in 0.01M ADA pH 6.0, 0.15M NaCl, 3 mM EDTA, and 0.05% v/v Surfactant Tween-20 (ABS-ET pH6 buffer). To achieve this, association of either hIL-33 or MfIL-33-6His to the captured monoclonal antibody was monitored for 4 minutes in ABS-ET running buffer. Following a 30 second dissociation of either hIL-33 or MfIL-33-6His in ABS-ET running buffer, ABS-ET pH6 buffer was injected for 3 minutes, and the analyte dissociation under the low-pH conditions was measured. All the binding kinetic experiments were performed at both 25° C. and 37° C. Kinetic association (kₐ) and dissociation (kd) constants were determined by fitting the real-time sensorgrams to a 1:1 binding model using Scrubber 2.0c curve fitting software. Binding dissociation equilibrium constants (KD) and dissociative half-lives (t½) were calculated from the kinetic rate constants as: […]

[2] = target: T2, cynomolgus monkey IL-33 expressed with a C-terminal hexahistidine tag (cynomolgus monkey); test: SPR 37C pH7.4, mAb captured
T2 construct: also called MfIL-33-6His; Mf-IL-33-6His
T2 chain: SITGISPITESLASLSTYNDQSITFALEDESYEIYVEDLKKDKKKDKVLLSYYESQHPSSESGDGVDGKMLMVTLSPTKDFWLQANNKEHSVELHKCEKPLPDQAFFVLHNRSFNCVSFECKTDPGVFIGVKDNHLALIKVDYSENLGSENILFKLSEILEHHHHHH
Procedure: as §1

[3] = target: T1, human IL-33 (R&D Systems, …); test: SPR 25C, pH6.0 chase, mAb captured
Procedure: as §1

[4] = target: T2, cynomolgus monkey IL-33 expressed with …; test: SPR 25C, pH6.0 chase, mAb captured
Procedure: as §1

[5] = target: T2, cynomolgus monkey IL-33 expressed with …; test: competition ELISA, 150 pM MfIL-33-6His on coated hST2-hFc
Procedure: (§2) The ability of anti-IL-33 antibodies to block either human IL-33 (hIL-33) or cynomologus monkey IL-33 binding to the human ST2 receptor was measured using a competition sandwich ELISA. […] The antibody/IL-33 mixtures were incubated for 1 hour at room temperature before they were transferred to the hST2-hFc-coated microtiter plates. After incubating for 1 hour at room temperature, the wells were then washed, and plate-bound biotin-hIL-33 was detected with streptavidin conjugated with horse-radish peroxidase (HRP) (Thermo Scientific, Cat # N200), and plate-bound MfIL-33-6His was detected with a HRP conjugated anti-His monoclonal antibody (Qiagen, #34460). All samples were developed with a TMB solution (BD biosciences, #51-2607KC) to produce a colorimetric reaction and then quenched by acidification with 1M sulfuric acid before measuring absorbance at 450 nm on a Victor X5 plate reader. Data analysis was performed using a sigmoidal dose-response model within Prism™ software. […] Percent blockade was calculated as the ratio of the reduction in signal observed in the presence of antibody relative to the difference between the signal with IL-33 alone and background (signal from HRP-conjugated secondary antibody or streptavidin alone). The absorbance measured for the constant concentration of biotin-hIL-33 or MfIL-33-6His alone is defined as 0% blocking and the absorbance measured for no added IL-33 is defined as 100% blocking.

[6] = target: T3, biotinylated hIL-33 protein (R&D systems, Cat #3625-IL/CF) (human, UniProt O95760 112-270, biotinylated (sites not given)); test: competition ELISA, 30 pM biotin-hIL-33 on coated hST2-hFc
T3 construct: Same commercial protein as m21, biotin-labelled; also called biotin-hIL-33
T3 sequence (looked up): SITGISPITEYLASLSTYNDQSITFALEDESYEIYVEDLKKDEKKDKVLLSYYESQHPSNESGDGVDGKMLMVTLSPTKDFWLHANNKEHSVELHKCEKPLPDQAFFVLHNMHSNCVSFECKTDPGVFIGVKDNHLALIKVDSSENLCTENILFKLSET
Procedure: as §2

[7] = target: T1, human IL-33 (R&D Systems, …); test: SPR 25C pH7.4, mAb captured
Procedure: as §1

[8] = target: T2, cynomolgus monkey IL-33 expressed with …; test: SPR 25C pH7.4, mAb captured
Procedure: as §1

Binder | Kd [1] [nM] | koff [1] [s⁻¹] | kon [1] [M⁻¹ s⁻¹] | t½ [1] [min] | Kd [2] [nM] | koff [2] [s⁻¹] | kon [2] [M⁻¹ s⁻¹] | t½ [2] [min] | koff [3] [s⁻¹] | t½ [3] [min] | t½ Ratio (pH 7.4/pH 6.0) [3] | koff [4] [s⁻¹] | t½ [4] [min] | t½ Ratio (pH 7.4/pH 6.0) [4] | % Maximum blocking [5] [%] | IC50 [5] [nM] | % Maximum blocking [6] [%] | IC50 [6] [nM] | Kd [7] [nM] | koff [7] [s⁻¹] | further results
B1 | 0.677 | 0.00124 | 1.83e+06 | 9 | 2.22 | 0.00361 | 1.62e+06 | 3.2 | 0.0011 | 11 | 2.7 | 0.000683 | 17 | 0.7 | 81 | 1.2 | 74 | 0.5 | 0.305 | 0.000414 | kon [7]: 1.36e+06 M⁻¹ s⁻¹; t½ [7]: 28 min; Kd [8]: 1.06 nM; koff [8]: 0.000925 s⁻¹; kon [8]: 869000 M⁻¹ s⁻¹; t½ [8]: 12 min
B2 | 0.681 | 0.00077 | 1.13e+06 | 15 | 32.7 | 0.0141 | 432000 | 0.8 | 0.00134 | 9 | 4.8 | 0.00809 | 1.4 | 2.3 | 40 | 13 | 71 | 0.6 | 0.551 | 0.00028 | kon [7]: 508000 M⁻¹ s⁻¹; t½ [7]: 41 min; Kd [8]: 15.9 nM; koff [8]: 0.00354 s⁻¹; kon [8]: 222000 M⁻¹ s⁻¹; t½ [8]: 3.3 min
B3 | 1.39 | 0.000721 | 519000 | 16 | 16.2 | 0.00584 | 361000 | 2 | 0.000823 | 14 | 3.2 | 0.00048 | 24 | 0.3 | 67 | 3.8 | 73 | 0.3 | 0.757 | 0.000257 | kon [7]: 339000 M⁻¹ s⁻¹; t½ [7]: 45 min; Kd [8]: 11.8 nM; koff [8]: 0.00165 s⁻¹; kon [8]: 140000 M⁻¹ s⁻¹; t½ [8]: 7 min
B4 | 1.19 | 0.00144 | 1.21e+06 | 8 | 1.91 | 0.0021 | 1.1e+06 | 5 | 0.00212 | 5 | 4.5 | 0.000753 | 15 | 1.3 | 81 | 0.42 | 55 | 0.87 | 0.533 | 0.000474 | kon [7]: 888000 M⁻¹ s⁻¹; t½ [7]: 24 min; Kd [8]: 1.02 nM; koff [8]: 0.000566 s⁻¹; kon [8]: 557000 M⁻¹ s⁻¹; t½ [8]: 20 min
